# Article PMC6102588, “Quaternary Structure, Salt Sensitivity, and Allosteric Regulation of β-AMYLASE2 From Arabidopsis thaliana” (Frontiers in Plant Science, 2018)
# Residue numbers refer to the chain shown, from its start. Names and notes keep the numbering of the source.
# B1: Arabidopsis thaliana β-AMYLASE2 (BAM2), wild type, without chloroplast transit peptide (enzyme, UniProt O65258 56-542, looked up)
# chain: AESTEEDRVPIDDDDDSTDQLVDEEIVHFEERDFAGTACVPVYVMLPLGVIDMNSEVVEPEELLDQLRTLKSVNVDGVMVDCWWGIVESHTPQVYNWSGYKKLFQMIRELGLKIQVVMSFHECGGNVGDDVHIQIPEWVREIGQSNPDIYFTDSAGRRNTECLTWGIDKQRVLRGRTALEVYFDYMRSFRVEFDEFFEEKIIPEIEVGLGPCGELRYPSYPAQFGWKYPGIGEFQCYDKYLMNSLKEAAEVRGHSFWGRGPDNTETYNSTPHGTGFFRDGGDYDSYYGRFFLNWYSRVLIDHGDRVLAMANLAFEGTCIAAKLSGIHWWYKTASHAAELTAGFYNSSNRDGYGPIAAMFKKHDAALNFTCVELRTLDQHEDFPEALADPEGLVWQVLNAAWDASIPVASENALPCYDREGYNKILENAKPLTDPDGRHLSCFTYLRLNPTLMESQNFKEFERFLKRMHGEAVPDLGLAPGTQETNPE
# notes: β-amylase 2 (BAM2), Arabidopsis thaliana, NP_191958.3, lacking its predicted 55 amino acid N-terminal chloroplast transit peptide; the start at residue 56 is worked out from that statement; Expression vector in pETDuet-1; Predicted monomer mass without transit peptide is 57.1 kDa; also called WT BAM2; WT; source: E. coli BL21+, purified by the N-terminal 6-His tag
# B2: BAM2 F238A mutant (Interface B) (enzyme, Arabidopsis thaliana, UniProt O65258 56-542, looked up)
# chain: B1 chain with F183A
# notes: β-amylase 2 (BAM2), Arabidopsis thaliana, NP_191958.3, lacking its predicted 55 amino acid N-terminal chloroplast transit peptide, with Phe238 changed to Ala; Made by QuikChange mutagenesis in the WT pETDuet-1 construct (Monroe et al., 2017); also called B2_F238A; source: E. coli BL21+, purified by the N-terminal 6-His tag
# B3: BAM2 W456A mutant (Interface A) (enzyme, Arabidopsis thaliana, UniProt O65258 56-542, looked up)
# chain: B1 chain with W401A
# notes: β-amylase 2 (BAM2), Arabidopsis thaliana, NP_191958.3, lacking its predicted 55 amino acid N-terminal chloroplast transit peptide, with Trp456 changed to Ala; Made by QuikChange mutagenesis in the WT pETDuet-1 construct (Monroe et al., 2017); also called B2_W456A; source: E. coli BL21+, purified by the N-terminal 6-His tag
# Assays:
# [1] = molecular target: BAM2 N-terminal deletion mutant (NDel), lacking the acidic region (Arabidopsis thaliana) (UniProt O65258); test: SEC-MALS; proteins at 1-2 mg mL^-1 injected into a 4.6 x 300 mm size-exclusion column, 0.5 mL min^-1, 10 mM MOPS, pH 7, 250 mM KCl; masses are averages, n = 3
# [2] = molecular target: the molecule itself; test: as above
Molecule,stoichiometry N [1],stoichiometry N [2]
"BAM2 N-terminal deletion mutant (NDel), lacking the acidic region (from UniProt O65258 86-542) (enzyme)",4,
B1,,4
B2,,2
B3,,2
